Data taken from patent US20030170849.

Columns and labels:
[1] = molecular target: T1, HCII peptide (SEQ ID NO:24), modeled on the tyrosine sulfation site in heparin cofactor II
T1 chain: EGEEDDDYLDLEKIFC

[2] = molecular target: T2, C4α peptide (SEQ ID NO:23), modeled on tyrosine sulfation sites in the α chain of the fourth component of complement
T2 chain: EANEDYEDYEYDELPAC

B1: Human TPST-1-HPC4 fusion protein (protein)
chain: MEDQVDPRLIDGKDPVGKLKQNLLLACLVISSVTVFYLGQHAMECHHRIEERSQPVKLESTRTTVRTGLDLKANKTFAYHKDMPLIFIGGVPRSGTTLMRAMLDAHPDIRCGEETRVIPRILALKQMWSRSSKEKIRLDEAGVTDEVLDSAMQAFLLEIIVKHGEPAPYLCNKDPFALKSLTYLSRLFPNAKFLLMVRDGRASVHSMISRKVTIAGFDLNSYRDCLTKWNRAIETMYNQCMEVGYKKCMLVHYEQLVLHPERWMRTLLKFLQIPWNHSVLHHEEMIGKAGGVSLSKVERSTDQVIKPVNVGALSKWVGKIPPDVLQDMAVIAPMLAKLGYDPYANPPNYGKPDPKIIENTRRVYKGEFQLPDFLKEKPQTEQVE
With B1 the “specific activity of TPST-1 extracts relative to TPST-2 extracts assayed in parallel” value [1] was 21-fold higher using the HCII peptide as substrate and the “specific activity of TPST-1 extracts relative to TPST-2 extracts assayed in parallel” value [2] was 9-fold higher using the C4α peptide.
